Data on two proteins can be found in patent US20050053994.

The target of this data set is actin.

B1: human DNase I (protein)
chain: LKIAAFNIQTFGETKMSNATLVSYIVQILSRYDIALVQEVRDSHLTAVGKLLDNLNQDAPDTYHYVVSEPLGRNSYKERYLFVYRPDQVSAVDSYYYDDGCEPCGNDTFNREPAIVRFFSRFTEVREFAIVPLHAAPGDAVAEIDALYDVYLDVQEKWGLEDVMLMGDFNAGCSYVRPSQWSSIRLWTSPTFQWLIPDSADTTATPTHCAYDRIVVAGMLLRGAVVPDSALPFNFQAAYGLSDQLAQAISDHYPVEVMLK
In the case of B1, the “DNA-hydrolytic activity in plasmid nicking assay (supercoiled pBR322, agarose gel)” value was “the DNA-hydrolytic activity of human DNase I was inhibited by added actin in a concentration-dependent manner”.

B2: human LS-DNase (protein)
chain: MRICSFNVRSFGESKQEDKNAMDVIVKVIKRCDIILVMEIKDSNNRICPILMEKLNRNSRRGITYNYVISSRLGRNTYKEQYAFLYKEKLVSVKRSYHYHDYQDGDADVFSREPFVVWFQSPHTAVKDFVIIPLHTTPETSVKEIDELVEVYTDVKHRWKAENFIFMGDFNAGCSYVPKKAWKNIRLRTDPRFVWLIGDQEDTTVKKSTNCAYDRIVLRGQEIVSSVVPKSNSVFDFQKAYKLTEEEALDVSDHFPVEFKLQSSRAFTNSKKSVTLRKKTKSKRS
For B2, the “DNA-hydrolytic activity in plasmid nicking assay (supercoiled pBR322, agarose gel)” value is “the DNA-hydrolytic activity of LS-DNase was not inhibited by concentrations of actin that fully inhibited human DNase I”.
